According to patent publication US20150087604A1, “ANTI-FATTY ACID SYNTHASE POLYPEPTIDE AND USE THEREOF” (TIANJIN TOPTECH BIO-SCIENCE & TECHNOLOGY CO., LTD., priority 2011, published 2015):
Entries after “also recorded” stand apart in the source; their conditions may differ.

Columns and labels:
[1] = Polypeptide drugs acute toxicity test; format: in vivo, Kunming white mice; conditions: 1 g/kg tail intravenous injection; observed 24 hr
Procedure: Control group and experimental group contained 10 Kunming white mice, with 5 females and 5 males, respectively. Experimental group injected Anti-FAS-P18 with the concentration of 1 g/kg (2.5 mg dried polypeptide drug solved in 0.125 ml ddH2O) by tail intravenous injection; control group, injected 0.25 ml ddH2O. Consecutively observed the mice for 24 hr after injection.

[2] = Weight of nude mice in the inoculation experiment; format: in vivo
Procedure: (§1) Suspended the HepG2 cells at exponential phase by treating with trypsin, and counted the number of cells to dilute to 1×10^7 cells/ml with physiological saline, and then store in the ice water. 12 Mice used were 4- to 6-week-old BALB/C females, and were randomly divided into two groups: (1) Control group, injected 0.2 ml diluted cells to the armpit of left forelimb for each mouse, and only injected 0.5 ml ddH2O (without polypeptide drugs); (2) experimental group (the treatment dose was 10 mg/kg), injected 0.2 ml diluted cells to the armpit of left forelimb for each mouse, and within 7 days after the injection, tumor volume (V=L×W^2×0.5) reached to 100 mm^3. And then, injected the above mentioned polypeptide drugs (dried polypeptide drug solved in 0.5 ml ddH2O) once in two day, total 10 times, and recorded the tumor volume before injection. Within 24 hr after the last dose, weighted the mice, and killed the mice to weight the tumor tissue, anti-tumor rate was calculated as follow: […]

[3] = tested on: HepG2 cells; assay: Inoculation experiment in nude mice (HepG2 tumor growth); format: in vivo; conditions: 10 mg/kg, once in two day, total 10 times
Procedure: as §1

[4] = tested on: NF-κB promoter; assay: Dual-luciferase reporter gene analysis, NF-κB promoter; format: cell-based; conditions: HepG2 cells; synthesized polypeptide 0.1 μM, 1 μM, 10 μM and 100 μM; 24 hr incubation
Source text: Hepatoma cell line HepG2 was adopted in the experiment. Because SREBP-1c is upstream transcription regulatory factor of FAS, whether there is inhibition of SREBP-1c promoter activity at the molecular level can be used to reflect the transcription state of FAS gene by reporter gene assays. Meanwhile, the detection of FAS promoter activity can directly reflect whether the transcription of FAS is inhibited or not. The nuclear factor κB (nuclear factor KB, NF-κB) is an import transcription factor, and increasing of NF-κB promoter activity indicates the increase of cell proliferation. Therefore, it can test the effects of the invention polypeptides on the proliferation of HepG2 cell by detection of NF-κB promoter activity and (3-(4,5-dimethylthiazol-2-yl)-2,5-diphenyltetrazolium bromide (MTT). […]
(7) Immediately put the EP tubes into a Luminometer (manufactured by Turner Biosystems). Within 10 sec after 2 sec balance, measured the luminescence.
(8) Added 100 μl fluorescence bleacher. […]
(9) Measured the luminescence within 10 sec.
The relative activity was the ratio of the value of the first luminescence to the value of the second luminescence.
Results shown are representative of three independent experiments according to Mean±SD, and statistical significance was calculated using Student's t test.

[5] = tested on: HepG2 cells; assay: MTT assay of cell proliferation of hepatoma cells; format: cell-based; conditions: synthesized polypeptide 0.1 μM, 1 μM, 10 μM and 100 μM, 48 hr
Source text: Hepatoma cell line HepG2 was adopted in the experiment. Because SREBP-1c is upstream transcription regulatory factor of FAS, whether there is inhibition of SREBP-1c promoter activity at the molecular level can be used to reflect the transcription state of FAS gene by reporter gene assays. Meanwhile, the detection of FAS promoter activity can directly reflect whether the transcription of FAS is inhibited or not. The nuclear factor κB (nuclear factor KB, NF-κB) is an import transcription factor, and increasing of NF-κB promoter activity indicates the increase of cell proliferation. […]
(2) Culture the cells: Within 12 hr for adhesion of cultured cells, different amount of polypeptides plasmids from Step A (0.25 μg, 0.5 μg and 0.75 μg) or different concentrations of synthesized polypeptides from Example 1 (0.1 μM, 1 μM, 10 μM and 100 μM) were transfected with 8 wells for each concentration, and were incubated for 48 hr in the same condition. 0.3 μg pEGFP-C2 plasmids and 1 μg p-Anti-HBxP1# were cotransfected, and using a fluorescence microscope to check for cells containing the GFP plasmid after 24 hr to make sure the percentage of cells that contain GFP is over 70%; […]
(5) Comparison: Read in an ELISA reader at 490 nm to measure the absorbance for each well. Results were calculated by using Student's t-test.

Gly-Gly-Cys-Arg-His-Lys-Leu-Val-Cys-Ala-Pro-Ala-Pro-Cys-Asn-Phe-Phe-Thr [Anti-FAS-P18]
abnormal behaviors after injection [1]: do not have abnormal behaviors | changes in weight compared with control group [1]: no abnormal changes in weight compared with control group | impact on the weight of nude mice ([2]; 10 mg/kg, once in two day, total 10 times): no significantly impact on the weight of nude mice | Weight (X ± S, g) After dose ([2]; body weight of mice after dose, 10 mg/kg, once in two day, total 10 times): 21.83 ± 0.82 g | Weight (X ± S, g) Before dose ([2]; body weight of mice before dose, experimental group 10 mg/kg): 15.33 ± 0.75 g | growth and proliferation of HepG2 cells in nude mice [3]: inhibits the growth and proliferation in the HepG2 cells; also recorded: inhibits the growth and proliferation of the HepG2 cells | Anti-tumor rate (%) ([3]; from tumor weight vs control): 43.06% | Tumor Weight (X ± S, g) ([3]; within 24 hr after the last dose): 0.42 ± 0.09 g | activity of NF-κB promoter [4]: inhibits the activity of NF-κB promoter in HepG2 cells in a dose-dependent manner | cell proliferation (MTT) [5]: inhibits cell proliferation in the HepG2 cells in a dose-dependent manner
